Eight molecules from doi:10.1101/2025.11.06.687086 (bioRxiv, 2025) can be followed below.

To fix the notation:
B1: CR9114 Fab (Fab, V domains shown)
VH: QVQLVQSGAEVKKPGSSVKVSCKSSGGTSNNYAISWVRQAPGQGLDWMGGISPIFGSTAYAQKFQGRVTISADIFSNTAYMELNSLTSEDTAVYFCARHGNYYYYSGMDVWGQGTTVTVSS
VL: QSALTQPPAVSGTPGQRVTISCSGSDSNIGRRSVNWYQQFPGTAPKLLIYSNDQRPSVVPDRFSGSKSGTSASLAISGLQSEDEAEYYCAAWDDSLKGAVFGGGTQLTVL
B2: HB315 Fab (Fab, V domains shown)
VH: EVQLLESGGGLAQPGGSLRLSCTASGFTFSNFAMNWVRQAPGKGLEWVSFINSGSGSTYYADSVKGRFTISRDNSENTLFLQMNSLRAEDTAVYYCAKDLGRAIFGLVIPEGAFDIWGQGTMVTVSS
VL: EIVMTQSPSSLSASVGDRVTITCRASQSINNHLNWYQQKPGKAPKLLIYAASSLQSGVPSRFSGSGSGTDFTLTISSLQPADFATYHCQQSYGVPLTFGQGTKVEIK
B3: HB31 Fab (Fab, V domains shown)
VH: EVQLLESGGGLVQPGGSLRLSCTVSGFTSSNYDMSWVRQAPGKGLEWVSGISGTGRDTYYADSVKGRFTISRDNSKNTLSLQMNSLRADDTAVYFCARDRPVLRYFDWQPYGLDVWGKGTTVTVSS
VL: QSALTQPPSASGSPGQSVTISCTGTSSDVGGYNYVSWYQQYPSKAPKLMIYEVSKRPSGVPDRFSGSKSGNTASLTVSGLQAEDEADYYCNSYAGSNLYVFGTGTKVTVL
B4: HB34 Fab (Fab, V domains shown)
VH: B3 VH
VL: QSALTQPASVSGSPGQSITISCTGTSSDVGSYNLVSWYQQHPGKAPKLMIYEGSQRPSGVSNRFSGSKSGNTASLTISGLQAEDEADYYCCSYASSTSYVFGTGTKVTVL
B5: FISW84 Fab (Fab, V domains shown)
VH: EVQLLESGGGLVQPGGSLRLSCAASGFTFSSYGMAWVRQAPGKGLEWVSFISATGLSTYFADSVKGRFTISRDTTKNTLYLQMNSLRADDTAVYFCARMRRTMIAFGGNDFWGQGTLVTVSS
VL: EVVMTQSPATLSVSPGEGATLSCRASQSVNTNVAWYQQKPGQAPRLLIYGASTRATGIPARFSGSGSGTEFTLTISTLQSEDFAVYYCQQYSNWPPITFGQGTRLEIK
notes: also called anchor Fab FISW84
B6: HB315 IgG (antibody, V domains shown)
VH: B2 VH
VL: B2 VL
B7: HB31 IgG (antibody, V domains shown)
VH: B3 VH
VL: B3 VL
B8: HB34 IgG (antibody, V domains shown)
VH: B3 VH
VL: B4 VL

The target in the first assay is T1, A/Michigan/45/2015 (H1N1) HA (Influenza A virus A/Michigan/45/2015 …, UniProt A0A1J0CXU0, strain). The assay is described as follows: BLI. The settings on record: both partners purified.
For B1, the binding result is given as “binds”.

As to B2, the binding result was “binds”.

Take B3: the binding result is listed as “binds”.

As to B4, the binding result is given as “binds”.

For B5, the binding result is “binds”.

Another assay deals with A/Beijing/262/1995 (H1N1) HA (Influenza A virus A/Beijing/262/1995 …, UniProt B4UPF7, strain). The assay is described as follows: ELISA. The settings on record: one partner purified. A general note: In an ELISA, binding on a coated surface is turned into a signal by an enzyme label.
Take B6: the binding result was “binds”.

In the case of B7, the binding result is on record as “binds”.

With B8, the binding result is “binds”.

The target of the next assay is A/California/07/2009 (H1N1) HA (Influenza A virus A/California/07/2009 …, UniProt C3W5X2, strain). Nature of the assay: ELISA. The following applies: one partner purified.
For the molecule B6, the binding result is “binds”.

Regarding B7, the binding result is “binds”.

As for B8, the binding result is on record as “binds”.

The next assay concerns the target T2, A/Solomon Islands/3/2006 (H1N1) HA (Influenza A virus A/Solomon …, strain). Nature of the assay: ELISA. The settings on record: one partner purified.
For the molecule B6, the binding result is “binds”.

Consider B7, for which the binding result is recorded as “binds”.

On to B8, for which the binding result is “binds”.

Another assay concerns the target T1, A/Michigan/45/2015 (H1N1) HA. Nature of the assay: ELISA. The settings on record: one partner purified.
Regarding B6, the binding result is listed as “binds”.

With B7, the binding result was “binds”.

For B8, the binding result is “binds”.

Another assay concerns the target A/northern pintail/WA/40964/2014 (H5N8) HA (influenza A virus A/northern …, UniProt A0A0C4WPH5, strain). Nature of the assay: ELISA. The following applies: one partner purified.
Regarding B6, the binding result is “binds”.

B7: the binding result is given as “binds”.

Regarding B8, the binding result is “binds”.

The next assay addresses T3, A/Japan/305/1957 (H2N2) HA (Influenza A virus A/Japan/305/1957 …, UniProt P03451, strain).
T3 construct: source: Sf9, baculovirus, purified from the supernatant (Ni Sepharose excel, SEC)
The assay is described as follows: ELISA. The following applies: one partner purified.
For B6, the binding result is “binds”.

For the molecule B7, the binding result was “binds”.

On to B8, for which the binding result is “binds”.

For another assay, the target named is T4, A/Taiwan/01/1986 (H1N1) HA (Influenza A virus A/Taiwan/1/1986 (H1N1), UniProt F5CU03, strain).
T4 construct: source: bought: Sino Biological
The assay is described as follows: ELISA. The following applies: one partner purified.
B6: the binding result was “binds”.

For B7, the binding result is “binds”.

In the case of B8, the binding result is recorded as “binds”.

Another assay concerns the target T5, A/USSR/90/1977 (H1N1) HA (Influenza A virus A/USSR/90/1977 (H1N1), UniProt P03453, strain).
T5 construct: source: bought: Sino Biological
Nature of the assay: ELISA. The settings on record: one partner purified.
B6: the binding result is listed as “binds”.

For B7, the binding result is given as “binds”.

As to B8, the binding result is “binds”.

A further assay concerns the target T2, A/Solomon Islands/3/2006 (H1N1) HA. Nature of the assay: cryo-EM structure. The following applies: both partners purified.
For B2, the binding result was “binds”.

Regarding B3, the binding result is given as “binds”.

B4: the binding result is reported as “binds”.
